41 sequences from the nanobody polyreactivity screen of Harvey et al. (2022) can be followed below.

This data set in a line: yeast display, Sf9 membrane polyspecificity reagent, FACS + sequencing; frameworks hold sequencing errors. Put shortly: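 Genes from sorted yeast were amplified by colony PCR, read by MiSeq 2 × 250 sequencing and filtered on CDR length. These cells carried a synthetic nanobody library in Saccharomyces cerevisiae BJ5465 and were sorted by FACS into low and high (top ~1%) gates on anti-HA and streptavidin fluorescence. Polyreactivity is labelled according to the gate of origin.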
As to “QVQLVESGGGLVQAGGSLRLSCASSGITFRYYAMGWYRQAPGKERELVAAISDGGSTNYADSVKGRFTISRDNAKNTVYLQMNSLKPEDTAVYYCAADYRYLFDYWGQGTQVTVSS”, the “polyreactivity (PSR sort gate)” value is recorded as “high polyreactivity”.

For the sequence “QVQLVESGGGLVQAGGSLRLSCAASGSIFVHYDMGWYRPAPGKERELVADIDYSGGSTYYADSVKGRFTISRDNAKNTVYLQMNSLKPEDTAVYYCAAERRRWGLDYYYWGQGTQVTVSS”, the “polyreactivity (PSR sort gate)” value was “high polyreactivity”.

Regarding “QVQLVESGAGLVQAGGSLRLSCAASGRIFHKYAMGWYRQAPGKERELVAAIDWSGGSTYYADSVKGRFTISRDNAKNTVYLQMNSLKPEDTAVYYCAAYWYYEDGQCEARLYGYDYWGQGTQVTVSS”, the “polyreactivity (PSR sort gate)” value is listed as “low polyreactivity”.

With “QVQLVESGGGLVQAGGSLRLSCAASGRTFYDYDMGWYRKAPGKERELVAAISGGDSTYYADSVKGRFTISRDNAKNTVFLQMNSLKPEDTAVYYCAVTPRGLPYGAYLLYYWGQGTQVTVSS”, the “polyreactivity (PSR sort gate)” value is recorded as “low polyreactivity”.

With “QVQLVESGGGLVQAGGSLRLSCAASGSIFVNNAMGWYRQAPGKERELVAAIRRGSSTNYADSVKGRFTISRDNAKNTVYLQMNSLKPEDTAVYYCAADHVDDEAQNYDYWGQGTQVTVSS”, the “polyreactivity (PSR sort gate)” value is recorded as “low polyreactivity”.

Take “QVQLVESGGGLVQAGGSLRLSCAASGGTFTYYTMGWYRQAPRKERELVAAISTGGRTYYADSVKGRFTISRDNAKNTVYLQMNSLKPEDTAVYYCDADTYTSRSRYSGSGGYDYWGQGTQVTVSS”: the “polyreactivity (PSR sort gate)” value is on record as “low polyreactivity”.

Take “QVQLVESGGGLVQAGGSLRLSCAASGRIFVNNAKGWYRPAPGKERELVAAISRGASTYYADSVKGRFTISRDNAKNTVYLQLNSLKAEDTAVYYGNARTDAYGASEMGYWGQGTQVTVSS”: the “polyreactivity (PSR sort gate)” value was “high polyreactivity”.

“QVQLVESGGGLVQAVGSLRLSCAASGFTFTNYAMGWSRQAPVKEREFVAAISGTGGSTYYADSVKGRFTISRDNAYNTEYLQMNSLKPEDTAVYYCARRRTYPPGRYYYLGQGTQVTVSS”: the “polyreactivity (PSR sort gate)” value is recorded as “high polyreactivity”.

For “QVQLVESGGGLVQAGGSLRLSCAASGFTIRWYLMGWYRQAPGKERELVAAISWSGDRTYYADSVKGRFTISRDNAKNTVYLQMNSLKPEDTAVYYCNSLSAFQVDNYDYWGQGTQVTVSS”, the “polyreactivity (PSR sort gate)” value was “high polyreactivity”.

Turning to “QVQLVESGGGLVQAGGSLRLSCAASGSTFQLYAMGWYRPPPGTERELVAGISRDGSTYYADSVKARFSISRDNSKNTVYLQMNSLKPEDTAVYYCAAKYYGNKRDLYYWGQGTQVTVSS”, the “polyreactivity (PSR sort gate)” value was “low polyreactivity”.

As to “QVQLVESGGGLVQAGGSLRLSCAASGFIFSYYAMGWYRQAPGKERELVAAITVTGGNTYYADSVKGRFTISRDNAKNTVYLQMNSLKPEDTAVYYCAAVVRGPGVSVYYWGQGTQVSVSS”, the “polyreactivity (PSR sort gate)” value is listed as “low polyreactivity”.

Regarding “QVQLVESGGGLVKAGGSLRLSCAASGLISAVYALGWYRQAPGKERELVAAITTSGGRTYYADSVKGRFTISRDNAKNTVYLQMNSLKPEDTAVYYCAAEHVRYLNPEFDYWGQGTQVTVSS”, the “polyreactivity (PSR sort gate)” value was “high polyreactivity”.

With “QVQLVESGGGLVQAGGSLRLSCAASGSIFYVYAMGWYRQAPGKERELVAAISFSGDTTYYADSVKGRFTISRDNAKNTVYLQMNSLKQEDTAVYYCAAEYYYTWVYQYWEMDYWGQGTQVTVSS”, the “polyreactivity (PSR sort gate)” value was “low polyreactivity”.

For the sequence “QVQLVESGGGLVQAGGSLRLSCAASGFTFDGYAMGWDRQAPGNERELVAAFSDSGDSTYYADSVKGRFTISRDNAKNTVYLQMNSLTPEDTAVYYCAAGLGYYWSDYFAYDSCGQGTQVTVSS”, the “polyreactivity (PSR sort gate)” value is “low polyreactivity”.

Take “QVQLVESGGGLFQAGGSLRLSCAASGSTSRYPMGWYRQAQGQERELVAAITRSGGTTYYADSVKGRFTISRDNAKNTVYLQMYSLKPEDTAVYYCATSDRQVKYDYWGQGTQVTVSS”: the “polyreactivity (PSR sort gate)” value is “low polyreactivity”.

Take “QVQLVESGGGLVQAGGSLRLSCAASGRTFNYYARGWYRQAPGKERELVAAISKRGGSTYYADSVKGRFTISRDNAKNTVYLQMNSLKPEDTAVYYCNAAQSVELGYDYWGKGTQVTVSS”: the “polyreactivity (PSR sort gate)” value is listed as “high polyreactivity”.

Regarding “QVQLVESGGGLVQAGGSLRLSCAASGFIFAPNVMGWYRQAPGKERELVAAINISGGSTSYADSVKGRFTISRDNAKNTVYLQMNSLKPEDTAVYYCAAEIPAYAYSYSYDYWGQGTQVTVSS”, the “polyreactivity (PSR sort gate)” value is recorded as “low polyreactivity”.

On to “QVQLVDSGGGLVQAGGSLPLSCAASGSIFSFYAMGWYRQAPGKERELVAAISGNGGRTYYADSVKGRFTISRDNAKNSVYLQMNSLKPEDTAVYYCAAYNSPRLCYWGQGTQVTVSS”, for which the “polyreactivity (PSR sort gate)” value is recorded as “high polyreactivity”.

As for “QGQLEESGGCLVQAGGSLRLSCAASGIIFYKNAMGWYRPAPGKERELVAAISGSGGRTYYADSVKGRFTISRDNAKNTVYLQMNSLKPEVTAVSYCAARQPYRHGYESWGQGTQVTVSS”, the “polyreactivity (PSR sort gate)” value was “high polyreactivity”.

On to “QVQLVESGGGLVQAGGSLRLSCAASGRIFYVYTMGWYRQAPGKERELVAAISWSGGSTHYADSVKGRFTIARDNAKNTVYLQMNSLKPEDTAVYYCNKGVVSRVAFEYWGQGTQVTVSS”, for which the “polyreactivity (PSR sort gate)” value is listed as “low polyreactivity”.

As to “QVQLVESGGGLVQAGGSLRLSCAASGIIFRYAMGWYRQAPGKERELVAAIRKSDGSTYYADSVKGRFTISRDNAKNTVYLQMNSLKPEDTAVYYCNAVTVGLYDYWGQGTQVTVSS”, the “polyreactivity (PSR sort gate)” value was “high polyreactivity”.

Take “QVQLVESGGGLVQAGGSLRLSCAASGRTFKHYVMGWYRQAPGKERELVATISGGGGTYFADSVKGRFTISRYNAKYTVYLQMNSLKPEVTAVYYCAARYPRGSRTWSFDSNKQRDYWGQGTQVTVSS”: the “polyreactivity (PSR sort gate)” value is on record as “low polyreactivity”.

Regarding “QVQIVESGGGLVQAGCSLRLSCAASGSTFLSNAMGLYRQAPGKERELVATNSFSRATYADSVKGRFTISRDNAKNTVYLQMNSLKPVDTAVYYCNRATINFSGKGDTAYDYWGQGTQVTVSS”, the “polyreactivity (PSR sort gate)” value is “low polyreactivity”.

For “QGQLVESGGGLVQAGGSLRLSCAASGFTFPGYAMGWYRQAPGNVRELVAAITGSGGRTYYADSVKGRFTISRDNAKNTVYLQMNSLKPEDTAVYYCLARSSYNWYDYWGQGTQVTVSS”, the “polyreactivity (PSR sort gate)” value is listed as “high polyreactivity”.

For “QVKLVESGGGLVQAGGSLRLSCAASGRTFGYNAMGWYRQAPGKERELVASINWSGGRTYYADSVKGRFTISRDNAKNTVYLQMYSLKPEDTAVYYCAKGFTRVQQQYQYLFGYWGQGTQVTVSS”, the “polyreactivity (PSR sort gate)” value is “low polyreactivity”.

“QVQLQESGGGLVQAGGSLRLSCAASGNIFPTVSMGWYRQAPGKEREFVVTIDPGSNTYYADSAKGRFTISRDNAKNTVYLQMNSPKPEDTAVYYCAVVFADWATYGYWGQGTQVTVSS”: the “polyreactivity (PSR sort gate)” value is on record as “high polyreactivity”.

Consider “QVQLVESGGGLVQAGGSLRLSCAASGYIFVRNAMGWYRQAPGKERELVAAISGSGGSTYYADSVKGRFTISRDNAKNTVYLQMNSLKPVDTAVYYCAADYATVTWRGIAYDYWGQGTQVTVSS”, for which the “polyreactivity (PSR sort gate)” value is listed as “low polyreactivity”.

As to “QVQLVESGGGLVQAGGSLRLSCAAAGSIFYYKTMGWYRQAPGKEREMVAAISWSGGSTSYADSVKGRFTISRDNAKNTVYLQMNSLKPEDTAVYYCNVDYGVHVTARDYWGQGTQVTVSS”, the “polyreactivity (PSR sort gate)” value is recorded as “low polyreactivity”.

Take “QVQLVESGGGLVQAGGSLRLTCAASGRTFLLYAMGWYRQAPGKERELVAAITSRSGRTYYADSVKGRFTISRDNAKNTVYLQMNSLKPEDTAVYYCAAQGYAPQEYEYWGQGTQVTVSS”: the “polyreactivity (PSR sort gate)” value is “high polyreactivity”.

“QVQLVESGGALVQAGGSLRLSCAASGRIFRAYAMGWYRQAPGKERELVAAISRSGGSTYYADSVKGRFTISRDNAKNTVYLQMNSLKPEDTAVYYCAAEYYFIDTGEYDYWGQGTQVSVSS”: the “polyreactivity (PSR sort gate)” value was “high polyreactivity”.

On to “QVQLVESGGGLVQAGGSLRLSCAASGSTFRHNAMGWYRQAPGKERELVAAITRSGGRTFYADSVKGRFTISRDNAKNTVYLQMNSLKPEDTAVYYCWGLGTQVTVSS”, for which the “polyreactivity (PSR sort gate)” value is listed as “low polyreactivity”.

Regarding “QVQLVESGGGLVQAGGSLRLSCAASGYIFYFNAMGWYRQAPGKEREVVAAITFSGGATYYADSVKGRFTISRDTAKNTVYLQMNSLKPEDTAVYYCAAASRRSGAYTFYRTTSGAYGYWGQGTQVTVSS”, the “polyreactivity (PSR sort gate)” value is recorded as “high polyreactivity”.

For the sequence “QVQLVESGGGLVQAGGSLRLSCAASGFTSVDNAMGWYRQAPGNERELVAAIDTSGARTYYADSVKGRFTISRDNAKHTVYLQMNSLKPEDTAVYYCATEYVYDDRLYSTYYYWGQGTQVTVSS”, the “polyreactivity (PSR sort gate)” value is recorded as “high polyreactivity”.

As to “QVQLVESGGGLVQAGGSLRLSCAASGITFWSNAMGWYRQAPGKERELVAAITSSGGSAYYADSVKGRFTISRDNAKNTVYLQMNSLKPEDTAVYYCAAPISRSAGWDSYDYWGQGTQVTVSS”, the “polyreactivity (PSR sort gate)” value is given as “low polyreactivity”.

“QVQLVESGGGLVQAGGSLRLSCAASGSIIYAYAMGWYRQAPGKERELVAGIRDGGSTYYADSVKCRFTISRDNAKNTVYLQMNSLKPEDTAVYYCAAGPRIRDDYWGQGTQVTVSS”: the “polyreactivity (PSR sort gate)” value was “low polyreactivity”.

Consider “QVQLVESGGGLVQAGGSLRLSCAASGSIFASYDMGWYRQAPGKERELVARITFNGGSTYYADSVKGRFTISRDNAKNTVYLQMNSLKPEDTAVYYCANDYRYIFIYPYGWTRYDYWGQGTQVTVSS”, for which the “polyreactivity (PSR sort gate)” value was “low polyreactivity”.

Consider “QVQLVESGGGLVQAGGSLRLSCAASGFIFAGYAMGWYRQAPGKERELVAAISRRGGRTNYADSVKGRFTISRDNAKNTVYLQMNSLKPEDTAVFYCAAVQASVYYGLGRFDYWGQGTQVTVSS”, for which the “polyreactivity (PSR sort gate)” value is recorded as “high polyreactivity”.

In the case of “QVQLVESGGGLVQAGGSLRLICAASGFTFWNYAMGWYRQAPGKERELVAAITWSGGITYYADSVKGRFTISRDNAKNTVYLQMNSLKPEDTAVYYCAAYPQYQPEWYYIEYDYWGQGTQVTVSS”, the “polyreactivity (PSR sort gate)” value is “low polyreactivity”.

Consider “QVQLVESGGGLVQAGGSLRLSCAASGSILGGNAMGWSRQAPGKERELVAAITFSGGGTYYADSVKGRFTISRDNAKNTVYLQMNSLKPEDTAVYYCAADKDGYTYEFDYWGQGTQVTVSS”, for which the “polyreactivity (PSR sort gate)” value is reported as “low polyreactivity”.

In the case of “QVQLVESGGGLVQAGGSLRLSCAASGRTFGPYSMGWYRQAPGKERELVAAISSSGSTTYYADSVKGRFTISRDNAKNTVYLQMNSLKPEDTAVYYCAKPSSRDSPYDYWGQGSQVTVSS”, the “polyreactivity (PSR sort gate)” value is on record as “low polyreactivity”.

With “QVQLLESGGGLVQAGGSIRLSCSASGRTFARYVMGWYRQAPGKERELVASISNSGGSTYYSDSVKGRFTISRDNAQNTVYLQMNSLKPEDTEVYYCARRYYYYTTYRYDYWGQGTQVTVSS”, the “polyreactivity (PSR sort gate)” value is “high polyreactivity”.
